According to PMC7948958:

Columns and labels:
[1] = biological target: rabbit skeletal actin filaments (rabbit) (UniProt P68135)
[2] = biological target: rabbit skeletal actin filaments (rabbit) (UniProt P68135); remark: listed apart in the source
[3] = biological target: pyrene-labeled rabbit skeletal actin filaments (rabbit) (UniProt P68135); assay: other fluorescence titration; stopped-flow, quenching of pyrene-actin fluorescence; 0.05-0.3 μM EGFP-M15-2IQ mixed with 0.5-3 μM pyrene actin; nucleotide-free (apyrase-treated); apparent rate constants from linear fit of kobs against [actin], KD calculated as k-6/k+6; 20-mM Mops (pH 7.0), 100-mM KCl, 5-mM MgCl2, 0.1-mM EGTA, 20 °C
[4] = biological target: pyrene-labeled rabbit skeletal actin filaments (rabbit) (UniProt P68135); assay: other fluorescence titration; stopped-flow, quenching of pyrene-actin fluorescence; 0.05-0.3 μM EGFP-M15-2IQ mixed with 0.5-3 μM pyrene actin; with saturating ADP (0.5 mM in the text, 1 mM in the legend), apyrase omitted; apparent rate constants from linear fit of kobs against [actin], KD …; 20-mM Mops (pH 7.0), 100-mM KCl, 5-mM MgCl2, 0.1-mM EGTA, 20 °C

actin-activated phosphate release (double-mixing stopped flow, MDCC-PbP), apparent association rate constant K9·k′+4 of M·ADP·Pi with actin, from the fast phase against [actin] up to 50 μM [1] [M⁻¹ s⁻¹] | actin-activated steady-state ATPase (NADH assay, 10-mM KCl, 20 °C), K ATPase; myosin from Sf9 coexpressing UNC45A (baculovirus) [2] [mM] | actin-activated steady-state ATPase (NADH assay, 10-mM KCl, 20 °C), K ATPase; myosin from Sf9 coexpressing UNC45B (baculovirus) [2] [mM] | Kd [3] [nM] | koff [3] [s⁻¹] | kon [3] [M⁻¹ s⁻¹] | Kd [4] [nM] | koff [4] [s⁻¹] | kon [4] [M⁻¹ s⁻¹] | actin-activated steady-state ATPase (NADH assay, 10-mM KCl, 20 °C), K ATPase; myosin from the Sf9-UNC45A cell line [2] [mM] | actin-activated steady-state ATPase (NADH assay, 10-mM KCl, 20 °C), K ATPase; myosin from the Sf9-UNC45B cell line [2] [mM] | Substance
130000 | 0.0061 | 0.0104 | 200 | 0.65 | 3.18e+06 | 310 | 0.55 | 1.75e+06 |  |  | EGFP-M15-2IQ motor domain complex (EGFP-M15-2IQ:ELC:RLC) (from UniProt Q9QZZ4-3 1-743; P60661 1-151)
 |  |  |  |  |  |  |  |  | 0.0052 | 0.007 | M15-2IQ-EGFP motor domain complex (M15-2IQ-EGFP:ELC:RLC) (from UniProt Q9QZZ4-3 1-743; P60661 1-151)
